Literature values as cited in paper PMC12083247.

Assays:
S100A10 (Homo sapiens) = S100A10 (Homo sapiens) (UniProt P60903)
calpain (Homo sapiens) = calpain (Homo sapiens) (UniProt P07384)
Chain of UniProt P07384 (P07384 2-714): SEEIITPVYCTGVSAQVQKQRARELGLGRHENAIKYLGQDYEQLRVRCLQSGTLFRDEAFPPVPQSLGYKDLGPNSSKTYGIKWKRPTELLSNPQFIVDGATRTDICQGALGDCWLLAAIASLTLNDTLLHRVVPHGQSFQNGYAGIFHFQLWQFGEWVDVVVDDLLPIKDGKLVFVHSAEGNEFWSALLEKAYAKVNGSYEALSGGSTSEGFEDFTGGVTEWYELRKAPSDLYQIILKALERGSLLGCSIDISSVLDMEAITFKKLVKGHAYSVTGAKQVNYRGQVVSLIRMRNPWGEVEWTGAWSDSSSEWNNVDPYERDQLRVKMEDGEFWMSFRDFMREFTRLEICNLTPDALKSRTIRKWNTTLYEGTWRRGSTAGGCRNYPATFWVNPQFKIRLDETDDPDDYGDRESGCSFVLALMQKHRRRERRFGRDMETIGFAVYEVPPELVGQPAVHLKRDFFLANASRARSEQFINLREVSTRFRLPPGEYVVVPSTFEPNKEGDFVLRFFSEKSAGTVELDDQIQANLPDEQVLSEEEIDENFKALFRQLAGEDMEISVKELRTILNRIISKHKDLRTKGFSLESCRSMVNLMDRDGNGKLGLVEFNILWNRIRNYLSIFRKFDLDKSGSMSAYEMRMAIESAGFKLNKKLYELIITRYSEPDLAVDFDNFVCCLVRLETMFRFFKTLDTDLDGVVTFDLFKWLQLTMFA

Chain of UniProt P60903 (P60903 whole entry): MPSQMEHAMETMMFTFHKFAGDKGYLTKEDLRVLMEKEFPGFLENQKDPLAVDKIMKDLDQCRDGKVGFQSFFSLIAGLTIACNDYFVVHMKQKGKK

Substance | Kd (S100A10 (Homo sapiens)) [nM] | Ki (calpain (Homo sapiens)) [nM]
annexin A2 N-terminal 10-12 residues (from UniProt P07355) | 13 | –
calpastatin domain I (from UniProt P20810) | – | 15
